From the RNAGym collection of RNA variant scans (doi:10.1073/pnas.2313332121)
Variants at the floor of the assay were thinned out.

B1: TPR 5TU (parent)
chain: GGAUCUUCUCGAUCUAACAAAAAAGACAAAUCUGCCACAAAGCUUGAGAGCAUCUUCGGAUGCAGAGGCGGCAGCCUUCGGUGGCGCGAUAGCGCCAACGUUCUCAACUAUGACACGCAAAACGCGUGCUCCGUUGAAUGGAGUUUAUCAUG

Variants of: B1
Test: polymerase ribozyme fitness, log enrichment relative to wild type (log ratio); higher = more active; in vitro selection for triplet polymerase activity
How it was run: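 A heterodimeric triplet polymerase ribozyme had each of its subunits mutagenized by PCR into a library, which was transcribed. One round of in vitro selection, done in triplicate, annealed each library with a biotinylated primer, its partner subunit and triplets, then incubated it frozen at −7 °C before gel excision of extended constructs, streptavidin-bead capture and RT-PCR. Fitness is the logarithm of genotype enrichment relative to wild-type enrichment, based on Illumina sequencing of inputs and outputs and inverse-variance-weighted replicate averages. A base-2 logarithm is used, and genotypes were kept only with ≥10 input reads and ≥1 read per output.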

Variant | polymerase ribozyme fitness (log ratio)
C54A G70A C95U A120G | -3.62
U78A C79U U82A G94U C96G G126A G141U | ≤ -4.2
G34A G84A C95G | -0.00509
C75U C85U A119G G143A A147C | -3.76
G42C U55A A60U C87U A115U | ≤ -4.2
U56G G92U | -2.1
G50A C85A | -3.59
C14U | -1.06
C14A | -1.08
U9C U31A U55A G59C U82G C108A C129G U144C | ≤ -4.2
C18G A19G A20U C57U G68C G141A | ≤ -4.2
G68U U134G | ≤ -4.2
A17U A40U C123U | -0.36
A22U G84U | -1.67
U44A G50C G84U G88A U139C G152A | ≤ -4.2
A22G A24U G59C C96G A98U | 0.453
C96A A97G G143A | -0.965
U13G C36A G83U C99A G140U | -4
U55A G141C | -0.199
G34A C36G C69G C76A C95G G112A | ≤ -4.2
C57U C95G A120G G143A | -2.18

Variant | polymerase ribozyme fitness (log ratio)
C85U C118U A142U | -1.02
C18U U44A G46U A64G U77A A110C G140C U148A | ≤ -4.2
C18U A37U G83A C87U U90G A98C C116A G133U A137C | ≤ -4.2
C54U C93A A110G A137G G140C | -4.1
U7C G68U A73G U82A G92A U101C C116A A137C | ≤ -4.2
A28G C38A C54G G88C C103A | ≤ -4.2
C63U C85U C95U C149U | -1.91
G59A C99G | -1.14
C85U C95G | -2.03
A16U U31G A37G G83A C96A A106C | ≤ -4.2
A52U U55A A115U C118A G126U A150U | ≤ -4.2
U4C G25U C79A C93G U111C | ≤ -4.2
C87G C114G A137G | ≤ -4.2
C27U A64G C75G G86A C105U | -4.19
C18U G34A G48U C75U G94C G141U | ≤ -4.2
C85G A115U A121G A142G U144G | ≤ -4.2
C5U G46A U61G | -4.13
A19G G58C G59C | 0.18
A21U A23C C38A C99G A142C | ≤ -4.2
C8U C93A | ≤ -4.2
C10U G94A | -2.69

Variant | polymerase ribozyme fitness (log ratio)
G58A U61G | -1.49
C57G C87U A89C C116A C132A | -4.13
G80A G92C | -0.857
A22U G71A | -2.64
A60G A91G | -2.73
C8G G62C G70U C96A C103U | ≤ -4.2
C51A A52G U56G C79A | ≤ -4.2
A3U A142C | -1.59
G42U A64C C79U G88A A106G A107C A147U | ≤ -4.2
A3C A47G A52G C87U C96U C99U G124A | -4.19
A66U C93U | ≤ -4.2
A49G A91G A142C | -3.71
A19G C27A C57A G92U A97G G133A U134G | ≤ -4.2
A73G C76U A142U | -2.11
C36U A37G U53A C54U C87G | ≤ -4.2
A110C G136U | ≤ -4.2
G42U A60G U139C U148A | -4.08
A23U A41G | -3.88
G11A A26G U55A C87A G124C G143C U148C | ≤ -4.2
C10U A23U U33G C96G A115C | ≤ -4.2
G42C U148C | ≤ -4.2

Variant | polymerase ribozyme fitness (log ratio)
A16U G46C G50C G67A G74C C118U U130A | -4.05
G80C U90G | ≤ -4.2
G25U G34U A47C A89G | ≤ -4.2
C76A C87G C93U | ≤ -4.2
C5U C93G | -3.16
A12G C27U G46U C57A C85G A122C | -3.63
A37U A64C U135C | ≤ -4.2
G124C G136A | -2.84
A21U C35U C129U | -0.6
G92C U135G | -3.12
C51U C95G C105G G117U | -3.53
A21C A26C C27U U44G A52G G58C U90A G92A G100U | ≤ -4.2
A52C C57U G86U C99U C118U C125G G143A U151A | ≤ -4.2
A12C A21C A23C G136A | ≤ -4.2
C14U A24U U55A G70C G94A C116G | ≤ -4.2
C27G C32G C36G A73G C93G U135A | -4.18
A20U A26G C27A C36U C93U A147U | ≤ -4.2
A21C C72G G124C | ≤ -4.2
C32U C57U A121U C125U | -1.52
A39U U82A A106G | -1.88
C14G A24C A49G G92C | ≤ -4.2
